The DeepSol protein solubility set

Test: soluble on expression in E. coli; label from the status in PepcDB or PDB records

For “DKSNKLQNLVAEQLVGCGFNEILNNSLTRAAYYDGLESYPSKNLVMLLNPLSADLNCMRQTLLFGGLESIAHNANRKNADLKFFEFGNCYHFDAEKKNPEKVLAPYSEDYHLGLWVTGKMVSNSWAHADENTSVYELKAYVENIFKRLGLDLHSLVVGNLSDDIYSTALTVNTKGGKRLATFGVVTKKMLKAFDVDNEVYYADLNWK”, which “soluble on expression in E. coli” value is on record?
Its value is “not soluble”.

Which “soluble on expression in E. coli” value does the source give for “DVLESTIKAQKSRALNRKNLNYKQLLNTFGSLIGLVFLKSYEQGERTYLGMLSRGYSKDSNIKTLGQK” here?
Its value is “not soluble”.

For “FPPRIVNPVVTPVTDTLTDTTDTKEYAVQTAIPDQRKVARPRADALRNRERIVLAAREMFVEHGPDVPLDDVARRAGVGNATVYRNFPDRDALVREVVCSVMDRTARAAELALAETGDAFEALERFVHASADERISALCPMVASTFDQHHPDLEAARGRVERLVAEVMDRAKAAGQLRGDVGVGDLMIAAAQLSRPPAGTGCVNADRFVHRHLQLFLDGLRAPARSVLPGAAVTLEDLRRPCDQ”, which “soluble on expression in E. coli” value is on record?
The value was “not soluble”.

Which “soluble on expression in E. coli” value does the source give for “MNEKVFRDPVHNYIHVNNQIIYDLINTKEFQRLRRIKQLGTSSYTFHGGEHS” here?
The value was “soluble”.

With “SFAKTGQLFNQTHLEEKKEIAQKAIQFIQEGDSIILDSGSTTTEIAKLLMNYKDLTVITNALNIALILGENHGINLIVTGGEFKAPTLSLTGKMAADSFKDIRANKLFLATAGISSDMKLTYPSLSDLVVKSAMIESASKVYLVADCSKI” as the sequence, how does the “soluble on expression in E. coli” value read?
The value was “not soluble”.

Which “soluble on expression in E. coli” value does the source give for “YGHNELPAEEGKSLWELVIEQFEDLLVRILLLAACISFVLAW” here?
Its value is “soluble”.

With “TDKEEFALYCEAKNDKVRKRLGIKGGFYWTTAKKLSVAISRCITAMDDNDYDEDDFKKPVRVNLPVVDDLPPEGVFDTEFCNRYEKGGKDGITMTFIGPSPSVQDKPASTDNTNINGEAMTEIEESMLLPVSGQELPIRWLAQHGSEKPVTHVSRDELQALHIARAEELPAVTALAISHKTSLLDSL” as the sequence, how does the “soluble on expression in E. coli” value read?
Its value is “not soluble”.

For “MAHHHHHHSLKEAEVLKYEAFTSSPGKGNPAGVVLQGDDYTEDEMQIIAERAGYSETSFIRKSESADLELRYFTPGHEMNLCGHATVASLYALCEKGMLESGKTYSIQTKAGILPVKISEKDGRIHITLEQASPQFKPFTGDRKKLADALGITDEDFHEDLPIVFGSTGIWTAIVPLKSLEASKKMVPDNKQFPEVLVDLPKASVHPFTFETVHPDSDLHGRHFSSPYSGTIEDPVTGTASGVMGAYMKHYGNAEQHKFIIEQGQEIGKDGKVEIEMNEAGGHVKVNMTGTAVYSETRILKIEG”, which “soluble on expression in E. coli” value is on record?
The value was “not soluble”.

For “MSVTEHKKQAPKEVRCKIVTISDTRTEETDKSGQLLHELLKEAGHKVTSYEIVKDDKESIQQAVLAGYHKEDVDVVLTNGGTGITKRDVTIEAVSALLDKEIVGFGELFRMISYLEDIGSSAMLSRAIGGTIGRKVVFSMPGSSGAVRLAMNKLILPELGHITFELHRQ”, which “soluble on expression in E. coli” value is on record?
Its value is “soluble”.

For “MGSDKIHHHHHHMCRLLAYLGSPVSLEHLLYKPEHSLIVQSYKPREMTSGAVNADGFGVGWYHSQKDIEPFTYKNTLPIWNDINLLSLSRYIESKCVLAYVRSATSEQAVDFANCQPFKHQQQLFIHDGRIENFHKTLHRKIRSTLTQDFYEKINGNTDSEHIFALLLSQSQINKHRPPEYALRTTLLTLLEMAKRYQVEASINVIFSDGHRLIASRFATTSLAPSLYWVRDDPTFSNSVIIASEPLFIGNWNAFPENSIITVGADCEIQIEQI”, which “soluble on expression in E. coli” value is on record?
Its value is “not soluble”.

For “MRKDETSNTSPDISAAQPASALRYHLRPPRRNDGAAIHQLVSECPPLDLNSLYAYLLLCEHHAHTCVVAESPGGRIDGFVSAYLLPTRPDVLFVWQVAVHSRARGHRLGRAMLGHILERQECRHVRHLETTVGPDNQASRRTFAGLAGERGAHVSEQPFFDRQAFGGADHDDEMLLRIGPFTHPPH”, which “soluble on expression in E. coli” value is on record?
The value was “not soluble”.

For “MGSDKIHHHHHHMTDPRTTAFNGRVAHASLKGEIEAERYSEGRWMMVQQPIANILDKPRGARTSQLVFGERFLVLDTEDGFSFGQAERDGYVGYILSGALTGAEPATHWVISPATHLYPKAELKVPPDVCLYFGSQVKVTGEKDDFKRIHTGHFMPSQHLMPIKARFRDSVGIADLFLGTPYLWGGTSRWGIDCSGLVQACLLACGVECPRDTDQQEAALGEEIPSDEALKRGDLIFWKGHVGMMASDRMLLHANAHHMSTAYEPLKDAAARIEAKEYGPITSRKRIAMG”, which “soluble on expression in E. coli” value is on record?
The value was “not soluble”.

For “MSLYPDDSLTLHTDLYQINMMQVYFDQGIHNKKAVFEVYFRQQPFKNGYAVFAGLERIVNYLEDLRFSDSDIAYLESLGYHGAFLDYLRNFKLELTVRSAQEGDLVFANEPIVQVEGPLAQCQLVETALLNIVNYQTLVATKAARIRSVIEDEPLMEFGTRRAQEMDAAIWGTRAAVIGGANGTSNVRAGKLFDIPVLGTHAHALVQVYGNDYEAFKAYAATHKNCVFLVDTYDTLRIGVPAAIQVARELGDQINFMGVRIDSGDIAYISKKVRQQLDEAGFTEAKIYASNDLDENTILNLKMQKAKIDVWGVGTKLITAYDQPALGAVYKIVAIEDETGQMRNTIKLSNNAEKVSTPGKKQVWRITSREKGKSEGDYITYDGVDISYMTEIKMFHPTYTYIKKTVRNFDAVPLLVDIFKEGILVYNLPSLTDIQDYARKEFDKLWDEYKRVLNPQHYPVDLARDVWQDKMDLIDKMRKEALGEGEEEEGHHHHHH”, which “soluble on expression in E. coli” value is on record?
The value was “soluble”.

Which “soluble on expression in E. coli” value does the source give for “WCAETAPEPQVEPEPEVLPEPDRGSATPAELGINSLDIVRLANRIEDATGTRPSLATLLNQPWQESLAMVEVLEPRPALASEQKPELVPDRDREVIDVVGAGMALGARIRAEVPISEEPVEDQFVQVGQWLKQLRAVVEPAGCMQVTPPSGNILCAIDITPGEKADVSDHAPLTPLQLGYLVGRADTWLGEPVAPHYYTEVEVADLDVVALQRALDEVVRAHPALMLGVHDDGNQGLSEALRPRLVVTDLRDHPDPDGELERIRAVGCAGVSDPLGTAWFQLRATLLPTAVR” here?
Its value is “not soluble”.

Which “soluble on expression in E. coli” value does the source give for “MIETSLDFSGLNDIAKDLEALSRAENNKVLRDATRAGAEVLKEEVIDRAPVRTGKLKKNVVVVTQKSRRRGEISSGVHIRGVNPRTGNSDNTMKANNPRNAFYWRFVELGTANMPAHPFVRPAYDTREEEAASVAIARMNQAIDEVLSK” here?
The value was “not soluble”.

For “MCRLLGFATAGSNTNLNGVLGMQNVRDFRNLSEIHNDGWGAALITVPDESPYRRDGGAPTPETGTAIYKNTIAARHDPIFDELANTPARGGLWHLRLASSNLPLILENQQPFYANGLSFIHNGDISDDQGRNIITNRAFPVDPSIVQSTGGRSDSAIFFAVILQYIGFGFALDEAVAQAVRELRKSYPKSSYNCMIQSQDQFIALCAAGREVTSKRIVEIYDQYGRGEQARDYRVLRYRALGGNDDQSKGVVVASSGFDQRAEDGWTRLENDQMIVASNRTGEFRVRSI”, which “soluble on expression in E. coli” value is on record?
Its value is “soluble”.

Which “soluble on expression in E. coli” value does the source give for “MGHHHHHHSHMEKSAPSIILNHWCVTWQGHHFLCRNLSNIKILNRRNGYTTLDLPLTLGDLTQYRLAHGLSENLMALSPYSWTIPFLVSSSETPGIELLPKVINDFGTPLSLAIKTNLPSIPAHQLLFYIIFLRPSPLTSMSCYARPLSLASTPSTNGLCQSVSVLDNKPGLLITTPLHRDPASGKYTSNVQSPTTFNLFRVLYIKLSGEEGMVSQKVKHLTIDKDSLQEGFLQLCLNMCGVSYETLQCEILLELVQGPTNFIFPAAFPPPVSLPHRNCIELTCDTERCLKPGDVMKLKHRLLYELGQRGDTPQNAFLIVGAHSPETVWISPSLWLPGQPLYINIINLSHKPLLLSRHSILALAIPISYTRAPASAHEATDTTICYSGNSRVLTCGAAHVLEAHFKHPPITSRAITDGGESPMEWQTL” here?
Its value is “not soluble”.

With “MALVNSILKANEYSFKVPEFDGKNVSSILGFDSNQLPANAPIEDRRSAATCLQTRGMLLGVFDGHAGCACSQAVSERLFYYIAVSLLPHETLLEIENAVESGRALLPILQWHKHPNDYFSKEASKLYFNSLRTYWQELIDLNTGESTDIDVKEALINAFKRLDNDISLEAQVGDPNSFLNYLVLRVAFSGATACVAHVDGVDLHVANTGDSRAMLGVQEEDGSWSAVTLSNDHNAQNERELERLKLEHPKSEAKSVVKQDRLLGLLMPFRAFGDVKFKWSIDLQKRVIESGPDQLNDNEYTKFIPPNYHTPPYLTAEPEVTYHRLRPQDKFLVLATDGLWETMHRQDVVRIVGEYLTGMHHQQPIAVGGYKVTLGQMHGLLTERRTKMSSVFEDQNAATHLIRHAVGNNEFGTVDHERLSKMLSLPEELARMYRDDITIIVVQFNSEGHHHHHH” as the sequence, how does the “soluble on expression in E. coli” value read?
The value was “soluble”.

Which “soluble on expression in E. coli” value does the source give for “MFPIASRRILLNASVLPLRLCNRNFTTTRISYNVIQDLYLRELKDTKLAPSTLQDAEGNVKPWNPPQKPNLPELELQGPEALKAYTEQNVETAHVAKESEEGESEPIEEDWLVLDDAEETKESH” here?
Its value is “not soluble”.

Which “soluble on expression in E. coli” value does the source give for “MGSDKIHHHHHHMGIKYSFTRELRTELIDVDKVFKENLLPWWDDIYNYIKMLNEDFTWNQLPPLVYIVYRYLGLDRSISISMTNIFKTLYLANSIHGMVKDDKEGQKYDQDLQFAILIGDYMFGRMLKLLVEAGADKLVGLFAVMMAEINEGQVMERKLQAAHKDVLQKTRGSIYATAFETAGHLSGMKGILLENCRQLGLNLGMSIELMNCDISREEVLVYIHEAERNYKIINQYQRMVNSNLEAAINEVHSLLCNIENVAVV” here?
The value was “not soluble”.

For “MGSDKIHHHHHHMKVLIVGGSGGIGQAMVKQVQETYPDATVHATYRHHLPNDRQNNIQWHALDVTNEAEIKQLSEQLTELDWLINCVGILHTQDKGPEKSLQSLDIDFFQHNLTLNTLPSVMLAKHFCHALKQSDSARFAVISAKVGSITDNRLGGWYSYRASKAALNMFLKTLAIEWQRNMKHCVVLSLHPGTTDTPLSQPFQQSVPKGKLFTPEYVANCLLPIIANATPAQTGCFFAYDGTELPW”, which “soluble on expression in E. coli” value is on record?
The value was “not soluble”.

Which “soluble on expression in E. coli” value does the source give for “MRHLKSFYVFHVAASSSSYTEAADKLNITHGAVSKQIKQLEQYLSQPLFLKEGRKSVLTAEGELLKTYTKTAFQTLETGVNTLIQEKHQHLEVSCEPTLTMRWLMPRLAAFNDEHRADVR” here?
The value was “not soluble”.

With “MDKRYLESDVFEAFQERLSYLFNEFDYIYVSFSGGKDSGLLLNLVLDYKRKNNISSKIGVFHQDFEAQYSLTTEYVEKVFEDNIEDIEPYWVCLPMATRTAVGNYEMYWYPWDDEKEELWVREMPVKEYIINQKNNPFTYYKYKMRQESLAKQFGRWIRDIHEGAKVVCLLGTRAAESLQRYCSIVNKQHGYKGKCWITKEFKNVWTASPIYDWEIEDIWLAHYKFDYDYNKIYDLFYK” as the sequence, how does the “soluble on expression in E. coli” value read?
The value was “not soluble”.

With “MAGDPMRLEIAEKYMAEAYEYLKKGDTIQASGKAYKVAEEIVKAIKFLISKLIGQDVGVISPYRTQVRKLDQELANYKPYVEVNTVDAFQGREKDVIIFSVTATNGLRFVTNRRRLNVAFTRPRYKLIVLGNENSIMSCQMTICLEHHHHHH” as the sequence, how does the “soluble on expression in E. coli” value read?
The value was “not soluble”.

With “MKTKNKILHANCLQLGGKGLLIIGPSGSGKSTLTLSLLDRAGWSKREAKLISDDYTMLRVENGKLQGSTPEGLQGGIEIRGVGLYTIEFEKQTTIDCVILLGPEYERFSTNQTFKFADLHIPLLKLPSLHEADCTAICQAIEAFFFRKVWLKSV” as the sequence, how does the “soluble on expression in E. coli” value read?
The value was “not soluble”.
